The target of assay [1] is TW2 (TrpR-Geminin coiled-coil-SpyTag-Geminin coiled-coil-MetJ) (UniProt P0A881). Put plainly: mass photometry; TW1, TW2 or assembled TW at a final concentration of 10 nM on the slide; 25 mM HEPES pH 7.4, 200 mM KCl, 5 mM MgCl2, 0.2 mM EDTA.
In assay [2] the target is TW1 (DtxR-Geminin coiled-coil-SpyCatcher) (UniProt P0DJL7). Described as above.

For orientation: stoichiometry N means a count of units in the complex or per binding partner. Turning to “TW2 (TrpR-Geminin coiled-coil-SpyTag-Geminin coiled-coil-MetJ) (from UniProt P0A881 2-10; O75496 110-145; O75496 110-145; P0A8U6 2-105)”, the stoichiometry N in assay [1] was 2.
“TW1 (DtxR-Geminin coiled-coil-SpyCatcher) (from UniProt P0DJL7 2-121; O75496 110-145)” gave a stoichiometry N in assay [2] of 2.

Source of the values: article PMC13379313.
